Biological target: von Willebrand factor (human, UniProt P04275 764-2813)
Test: ELISA

Sequence of von Willebrand factor (P04275 764-2813): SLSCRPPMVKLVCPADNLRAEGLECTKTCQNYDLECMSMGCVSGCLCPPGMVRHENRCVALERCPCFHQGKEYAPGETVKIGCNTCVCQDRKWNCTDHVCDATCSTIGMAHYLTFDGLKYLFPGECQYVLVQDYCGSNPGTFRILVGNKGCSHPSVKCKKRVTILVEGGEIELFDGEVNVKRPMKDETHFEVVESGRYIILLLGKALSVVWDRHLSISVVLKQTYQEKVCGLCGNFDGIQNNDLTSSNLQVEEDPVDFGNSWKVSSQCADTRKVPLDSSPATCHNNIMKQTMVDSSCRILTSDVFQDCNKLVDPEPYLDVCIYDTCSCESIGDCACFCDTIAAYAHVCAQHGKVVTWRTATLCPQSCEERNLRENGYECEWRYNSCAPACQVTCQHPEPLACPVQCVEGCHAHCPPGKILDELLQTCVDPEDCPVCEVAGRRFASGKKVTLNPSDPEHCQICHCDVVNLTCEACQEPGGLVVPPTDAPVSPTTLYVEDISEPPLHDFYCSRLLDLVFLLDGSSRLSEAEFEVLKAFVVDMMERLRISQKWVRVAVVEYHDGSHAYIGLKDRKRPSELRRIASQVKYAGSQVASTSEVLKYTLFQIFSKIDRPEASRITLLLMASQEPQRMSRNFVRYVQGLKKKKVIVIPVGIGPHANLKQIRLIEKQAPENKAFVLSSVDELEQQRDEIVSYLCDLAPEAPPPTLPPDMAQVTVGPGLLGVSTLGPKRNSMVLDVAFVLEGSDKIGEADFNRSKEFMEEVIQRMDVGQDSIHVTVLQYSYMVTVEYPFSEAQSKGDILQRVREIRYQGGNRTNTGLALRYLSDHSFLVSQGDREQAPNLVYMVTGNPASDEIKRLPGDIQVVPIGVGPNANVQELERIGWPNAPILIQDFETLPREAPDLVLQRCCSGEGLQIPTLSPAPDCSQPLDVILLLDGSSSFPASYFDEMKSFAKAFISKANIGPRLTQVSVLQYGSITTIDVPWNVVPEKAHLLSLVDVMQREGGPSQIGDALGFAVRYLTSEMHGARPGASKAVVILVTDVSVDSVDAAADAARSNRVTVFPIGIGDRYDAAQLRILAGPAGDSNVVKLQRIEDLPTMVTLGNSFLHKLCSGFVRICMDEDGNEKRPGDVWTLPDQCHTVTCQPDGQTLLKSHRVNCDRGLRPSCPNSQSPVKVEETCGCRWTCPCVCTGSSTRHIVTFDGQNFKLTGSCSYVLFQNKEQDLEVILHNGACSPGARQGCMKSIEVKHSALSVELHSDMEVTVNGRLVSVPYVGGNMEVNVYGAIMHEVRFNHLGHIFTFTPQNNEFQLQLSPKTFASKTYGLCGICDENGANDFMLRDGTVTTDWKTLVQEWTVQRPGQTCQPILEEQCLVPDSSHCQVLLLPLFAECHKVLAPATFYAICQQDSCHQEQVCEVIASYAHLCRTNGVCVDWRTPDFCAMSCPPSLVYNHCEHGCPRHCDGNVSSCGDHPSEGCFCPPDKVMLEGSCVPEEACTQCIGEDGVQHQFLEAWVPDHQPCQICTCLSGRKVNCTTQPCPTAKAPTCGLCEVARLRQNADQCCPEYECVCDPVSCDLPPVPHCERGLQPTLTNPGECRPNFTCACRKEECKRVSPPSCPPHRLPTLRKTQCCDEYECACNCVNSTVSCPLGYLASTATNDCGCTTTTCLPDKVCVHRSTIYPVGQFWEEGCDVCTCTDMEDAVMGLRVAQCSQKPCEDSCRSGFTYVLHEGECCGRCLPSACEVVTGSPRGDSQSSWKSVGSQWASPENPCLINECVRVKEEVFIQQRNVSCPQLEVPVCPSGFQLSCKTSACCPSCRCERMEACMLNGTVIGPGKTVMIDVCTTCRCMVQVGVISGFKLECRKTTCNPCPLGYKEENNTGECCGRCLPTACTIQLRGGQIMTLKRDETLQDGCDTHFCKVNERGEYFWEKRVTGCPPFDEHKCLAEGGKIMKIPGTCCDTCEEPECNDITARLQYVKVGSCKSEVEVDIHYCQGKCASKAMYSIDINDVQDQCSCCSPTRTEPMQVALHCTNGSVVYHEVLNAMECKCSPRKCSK

B1: Phosphorylase b (enzyme, rabbit, UniProt P00489 1-843, looked up)
chain: MSRPLSDQEKRKQISVRGLAGVENVTELKKNFNRHLHFTLVKDRNVATPRDYYFALAHTVRDHLVGRWIRTQQHYYEKDPKRIYYLSLEFYMGRTLQNTMVNLALENACDEATYQLGLDMEELEEIEEDAGLGNGGLGRLAACFLDSMATLGLAAYGYGIRYEFGIFNQKICGGWQMEEADDWLRYGNPWEKARPEFTLPVHFYGRVEHTSQGAKWVDTQVVLAMPYDTPVPGYRNNVVNTMRLWSAKAPNDFNLKDFNVGGYIQAVLDRNLAENISRVLYPNDNFFEGKELRLKQEYFVVAATLQDIIRRFKSSKFGCRDPVRTNFDAFPDKVAIQLNDTHPSLAIPELMRVLVDLERLDWDKAWEVTVKTCAYTNHTVLPEALERWPVHLLETLLPRHLQIIYEINQRFLNRVAAAFPGDVDRLRRMSLVEEGAVKRINMAHLCIAGSHAVNGVARIHSEILKKTIFKDFYELEPHKFQNKTNGITPRRWLVLCNPGLAEIIAERIGEEYISDLDQLRKLLSYVDDEAFIRDVAKVKQENKLKFAAYLEREYKVHINPNSLFDVQVKRIHEYKRQLLNCLHVITLYNRIKKEPNKFVVPRTVMIGGKAAPGYHMAKMIIKLITAIGDVVNHDPVVGDRLRVIFLENYRVSLAEKVIPAADLSEQISTAGTEASGTGNMKFMLNGALTIGTMDGANVEMAEEAGEENFFIFGMRVEDVDRLDQRGYNAQEYYDRIPELRQIIEQLSSGFFSPKQPDLFKDIVNMLMHHDRFKVFADYEEYVKCQERVSALYKNPREWTRMVIRNIATSGKFSSDRTIAQYAREIWGVEPSRQRLPAPDEKIP
binding result: binds
